Measurements: article PMC11786912 (Computational and Structural Biotechnology Journal, 2025)
Positions count from the first letter of the chain named. One block for each binder: values may come before it. Ends that are not written are not given here. * marks the point of attachment. Biotin = O=C1N[C@H]2[C@H](CS[C@H]2CCCCC(=O)*)N1; Ahx = NCCCCCC(=O)O

Legend:
[1] = biological target: CD99 on the surface of Jurkat T cells (Homo sapiens (Jurkat, endogenous), UniProt P14209); experiment: flow cytometry on cells
[2] = biological target: T1, biotinylated CD99 peptide target epitope (Biotin-Ahx-AVVDGENDDPRPPNP) (Homo sapiens (synthetic peptide)); experiment: BLI
T1 chain: {Biotin-Ahx}-AVVDGENDDPRPPNP

Sequence of CD99 on the surface of Jurkat T cells (P14209 23-185): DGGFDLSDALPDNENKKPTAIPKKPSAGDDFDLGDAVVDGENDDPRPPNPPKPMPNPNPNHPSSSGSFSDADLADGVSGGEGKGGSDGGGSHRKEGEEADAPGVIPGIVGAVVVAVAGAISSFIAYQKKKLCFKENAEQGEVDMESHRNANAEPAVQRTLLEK

binding result [1]: binds
Kd [2]: 264 nM
B1: HuScFvMT99/3^BP (His6X) (scFv, V domains shown)
VH: QVQLQESGPGLVKPSETLSLTCTVSGGSIKDTYIHWVRQPPGKGLEWIGRIDPGNGNIKYDPKFQGRATISADTSKNQVSLNLDSVTAADTAIYYCARSGGYDFDYWGQGTLVTVSS
VL: VLMTQSPSSLSASVGDRVTITCRSSQSLVHSNGNTYLHWYQQKPGQSPKLLIYTVSNRFSGVPDRFSGSGSGTDFTLTISSLQAEDVAVYYCSQSTYVPYTFGPGTKVDIK

Kd [2]: 135 nM
B2: HuScFvMT99/3^WT (His6X) (scFv, V domains shown)
VH: B1 VH with V24L, G27F, S28N, T87S, Q109K, T111S, L112T
VL: B1 VL with L2Q, Q46K, S47A, D64S, L77F, A84P, V87I, V89T, Y91F

binding result [1]: binds
Kd [2]: 395 nM
B3: HuScFvMT99/3^HY (His6X) (scFv, V domains shown)
VH: B1 VH
VL: B1 VL with L2Q, Q46K, S47A, D64S, L77F, A84P, V87I, V89T, Y91F
